Assays:
Assay in all cases: peptide or protein array
[1] = target: T1, Cap2p (spotted on the yeast ProtoArray) (S. cerevisiae, UniProt P13517 1-287)
T1 sequence (looked up): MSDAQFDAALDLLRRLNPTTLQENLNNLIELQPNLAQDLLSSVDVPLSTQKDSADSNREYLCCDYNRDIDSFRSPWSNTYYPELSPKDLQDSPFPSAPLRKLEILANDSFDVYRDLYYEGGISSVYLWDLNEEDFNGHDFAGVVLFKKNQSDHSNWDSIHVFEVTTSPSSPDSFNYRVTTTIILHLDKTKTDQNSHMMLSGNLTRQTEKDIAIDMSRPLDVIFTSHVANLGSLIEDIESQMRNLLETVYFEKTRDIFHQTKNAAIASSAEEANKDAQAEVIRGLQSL

[2] = target: T2, Eno2p (spotted on the yeast ProtoArray) (S. cerevisiae, UniProt P00925 1-437)
T2 sequence (looked up): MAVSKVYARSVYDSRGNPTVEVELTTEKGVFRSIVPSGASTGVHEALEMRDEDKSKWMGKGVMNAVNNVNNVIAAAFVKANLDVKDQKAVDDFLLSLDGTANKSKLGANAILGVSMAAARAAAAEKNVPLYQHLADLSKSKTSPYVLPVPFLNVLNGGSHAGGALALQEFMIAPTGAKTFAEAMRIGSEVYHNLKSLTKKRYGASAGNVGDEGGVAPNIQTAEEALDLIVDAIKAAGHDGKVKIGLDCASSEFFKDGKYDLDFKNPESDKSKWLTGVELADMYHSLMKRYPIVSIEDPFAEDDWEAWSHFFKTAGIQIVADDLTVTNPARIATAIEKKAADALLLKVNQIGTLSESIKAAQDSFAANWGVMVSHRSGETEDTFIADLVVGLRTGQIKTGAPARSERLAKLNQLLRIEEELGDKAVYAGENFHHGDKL

[3] = target: T3, Erg20p (spotted on the yeast ProtoArray) (S. cerevisiae, UniProt P08524 1-352)
T3 sequence (looked up): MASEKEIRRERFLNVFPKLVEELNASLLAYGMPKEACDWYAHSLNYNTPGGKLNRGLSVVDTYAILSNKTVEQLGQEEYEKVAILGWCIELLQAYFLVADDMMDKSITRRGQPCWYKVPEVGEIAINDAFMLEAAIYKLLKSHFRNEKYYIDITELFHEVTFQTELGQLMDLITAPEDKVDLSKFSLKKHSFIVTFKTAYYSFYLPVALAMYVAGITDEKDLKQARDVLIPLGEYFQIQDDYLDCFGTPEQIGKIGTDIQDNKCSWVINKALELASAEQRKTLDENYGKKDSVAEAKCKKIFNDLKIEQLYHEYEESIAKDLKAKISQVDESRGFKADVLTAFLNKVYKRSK

[4] = target: Mal32p (spotted on the yeast ProtoArray) (S. cerevisiae, UniProt P38158 1-584)

Measured: binding result

Mal32p (spotted on the yeast ProtoArray), sequence (P38158 whole entry): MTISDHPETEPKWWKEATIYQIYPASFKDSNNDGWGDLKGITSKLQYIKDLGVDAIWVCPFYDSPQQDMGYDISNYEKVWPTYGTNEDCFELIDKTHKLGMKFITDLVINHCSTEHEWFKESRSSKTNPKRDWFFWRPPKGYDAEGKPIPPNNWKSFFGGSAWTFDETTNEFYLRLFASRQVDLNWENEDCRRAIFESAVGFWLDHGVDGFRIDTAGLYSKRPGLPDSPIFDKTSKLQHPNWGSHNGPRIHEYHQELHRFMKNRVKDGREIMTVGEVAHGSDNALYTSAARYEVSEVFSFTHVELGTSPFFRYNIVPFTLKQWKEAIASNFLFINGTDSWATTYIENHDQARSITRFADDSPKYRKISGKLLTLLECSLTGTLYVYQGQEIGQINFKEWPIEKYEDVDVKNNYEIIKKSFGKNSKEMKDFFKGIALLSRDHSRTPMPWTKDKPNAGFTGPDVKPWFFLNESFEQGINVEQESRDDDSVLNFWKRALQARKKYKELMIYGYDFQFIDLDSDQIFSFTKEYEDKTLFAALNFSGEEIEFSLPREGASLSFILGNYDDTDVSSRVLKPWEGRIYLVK

B1: purified and biotinylated cytoplasmic domain of the Msb2p protein (HIS-Msb2p^CYT) (domain or fragment, S. cerevisiae, UniProt P32334 1207-1306, looked up)
chain: AFKYIIRRRIQSQEIIKNPEISSISSSEFGGEKNYNNEKRMSVQESITQSMRIQNWMDDSYYGHGLTNNDSTPTRHNTSSSIPKISRPIASQNSLGWNEV
modifications: biotinylated in vitro (sites not given)
binds: [1] | [2] | [3] | [4]
